Experimental data published in patent US20130244255A1, “ANTIBODIES DIRECTED TO GPNMB AND USES THEREOF” (priority 2006, published 2013).
Blank lines part the entries; values can stand above or below the molecule they belong to.

Tests used:
GPNMB [1] = target: T1, GPNMB (Homo sapiens, UniProt Q14956); assay: ELISA of hybridoma supernatants for binding to GPNMB
T1 construct: we cloned the human CG56972 extracellular domain (ECD; aa 23-480); made in house; host or cells: HEK 293 cells
T1 sequence (Q14956 23-492): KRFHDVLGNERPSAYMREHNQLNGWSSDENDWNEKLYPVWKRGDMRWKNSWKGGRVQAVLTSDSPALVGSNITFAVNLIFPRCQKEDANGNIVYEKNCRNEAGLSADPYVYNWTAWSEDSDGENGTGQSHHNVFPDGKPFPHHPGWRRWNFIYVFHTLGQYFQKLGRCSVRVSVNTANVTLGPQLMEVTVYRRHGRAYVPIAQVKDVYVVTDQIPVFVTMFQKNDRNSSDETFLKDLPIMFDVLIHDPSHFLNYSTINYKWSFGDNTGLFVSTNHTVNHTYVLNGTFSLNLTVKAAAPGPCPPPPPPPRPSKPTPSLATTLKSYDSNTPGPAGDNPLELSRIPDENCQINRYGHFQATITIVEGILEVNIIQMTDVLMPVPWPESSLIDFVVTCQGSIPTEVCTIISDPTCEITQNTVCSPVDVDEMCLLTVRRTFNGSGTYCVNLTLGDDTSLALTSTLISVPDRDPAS
Description: After 14 days of culture, hybridoma supernatants were screened for GPNMB specific monoclonal antibodies. In the Primary screen, the ELISA plates (Fisher, Cat. No. 12-565-136) were coated with 50 μL/well of GPNMB (1 μg/mL) in Coating Buffer (0.1 M Carbonate Buffer, pH 9.6, NaHCO3 8.4 g/L), then incubated at 4° C. overnight. After incubation, the plates were washed with Washing Buffer (0.05% Tween 20 in PBS) three times. 200 μL/well Blocking Buffer (0.5% BSA, 0.1% Tween 20, 0.01% Thimerosal in 1×PBS) were added and the plates were incubated at room temperature for 1 h. After incubation, the plates were washed with Washing Buffer three times. Aliquots (50 μL/well) of hybridoma supernatants and positive and negative controls were added, and the plates were incubated at room temperature for 2 h. The positive control used throughout was serum from the relevant GPNMB immunized XenoMouse® mouse and the negative control was serum from the KLH-immunized relevant strain of XenoMouse® mouse. After incubation, the plates were washed three times with Washing Buffer. 100 μL/well of detection antibody goat anti-huIgGfc-HRP (Caltag, Cat. No. H10507, using concentration was 1:2000 dilution) was added and the plates were incubated at room temperature for 1 hour. After incubation, the plates were washed three times with Washing Buffer. 100 μl/well of TMB (BioFX Lab. Cat. No. TMSK-0100-01) was added, and the plates were allowed to develop for about 10 minutes (until negative control wells barely started to show color). 50 μl/well stop solution (TMB Stop Solution (BioFX Lab. Cat. No. STPR-0100-01) was then added and the plates were read on an ELISA plate reader at a wavelength of 450 nm.
Hybridoma supernatants were screened for binding to GPNMB by ELISA as described above in Example 2.

GPNMB [2] = target: T1, GPNMB; assay: BiaCore 2000 analysis of hybridoma supernatants binding to GPNMB; settings: mAb captured on protein A; GPNMB at 880 nM; 1:1 kinetic model
Description: Certain Hybridoma cell supernatants (29) were analyzed for binding to GPNMB by BiaCore® 2000 biosensor equipped with a research-grade CM5 sensor chip. A 1:25 dilution of cell supernatant was passed over a protein A surface for 5 min followed by washing the surface for 10 mins. Subsequently, GPNMB was injected for 90 sec. over the surface at a concentration of 880 nM followed by dissociation. Double-referenced binding data were obtained by subtracting the signal from a control flow cell and subtracting the baseline drift of a buffer injected just prior to the antigen injection. GPNMB binding data for each mAb was normalized for the amount of mAb captured on each surface. Normalized, drift corrected responses were also measured. The sensorgrams were fit to a simple 1:1 kinetic model.

[3] = target: T2, cell membrane-bound GPNMB protein (Homo sapiens, UniProt Q14956); assay: FACS analysis of anti-GPNMB antibody binding to melanoma cell lines; settings: primary antibody 1 μg/mL
T2 construct: endogenous in cells; host or cells: UACC-62 and a panel of melanoma lines (A5)
T2 sequence (Q14956 23-572): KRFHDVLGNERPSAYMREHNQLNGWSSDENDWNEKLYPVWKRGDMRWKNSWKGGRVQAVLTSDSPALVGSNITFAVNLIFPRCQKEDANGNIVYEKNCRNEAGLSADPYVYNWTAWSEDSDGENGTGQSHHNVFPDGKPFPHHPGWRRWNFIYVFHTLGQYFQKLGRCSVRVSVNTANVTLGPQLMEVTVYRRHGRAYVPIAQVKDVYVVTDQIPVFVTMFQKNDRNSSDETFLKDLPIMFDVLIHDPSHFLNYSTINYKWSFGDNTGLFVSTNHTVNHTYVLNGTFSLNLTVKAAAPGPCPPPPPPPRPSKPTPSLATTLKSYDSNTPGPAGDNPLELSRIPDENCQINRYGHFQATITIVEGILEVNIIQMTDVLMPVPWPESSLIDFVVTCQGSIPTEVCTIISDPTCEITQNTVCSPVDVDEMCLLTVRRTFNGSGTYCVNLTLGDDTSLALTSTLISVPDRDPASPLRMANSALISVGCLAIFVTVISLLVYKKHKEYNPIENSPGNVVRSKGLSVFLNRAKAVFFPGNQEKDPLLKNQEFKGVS

GPNMB [4] = target: T1, GPNMB; assay: Binning of antibodies (Luminex competitive binding); settings: three bins of six anti-GPNMB antibodies
Description: Certain antibodies, described herein were binned in accordance with the protocol described in U.S. Patent Application Publication No. 20030157730. M×hIgG conjugated beads are prepared for coupling to primary antibody. The volume of supernatant needed is calculated using the following formula: (n+10)×50 μL (where n=total number of samples on plate). Where the concentration is known, 0.5 μg/mL is used. Bead stock is gently vortexed, then diluted in supernatant to a concentration of 2500 of each bead per well or 0.5×10^5/mL and incubated on a shaker in the dark at RT overnight, or 2 hours if at a known concentration of 0.5 μg/mL. Following aspiration, 50 μL of each bead is added to each well of filter plate, then washed once by adding 100 μL/well wash buffer and aspirating. Antigen and controls are added to filter plate 50 μL/well then covered and allowed to incubate in the dark for 1 hour on shaker. Following a wash step, a secondary unknown antibody is added at 50 μL/well using the same dilution (or concentration if known) as is used for the primary antibody. The plates are then incubated in the dark for 2 hours at RT on shaker followed by a wash step. Next, 50 μL/well biotinylated m×hIgG diluted 1:500 is added and allowed to incubate in the dark for 1 hour on shaker at RT. […] Following a wash step, each well is resuspended in 80 μL blocking buffer and read using Luminex. […]

GPNMB [5] = target: T3, GPNMB (Homo sapiens, UniProt Q14956); assay: GPNMB immunohistochemistry (IHC) on human tissue microarrays; format: binding; settings: normal and tumor human tissue microarrays (lung, ovarian, renal, esophagus, head & neck carcinomas, squamous cell carcinoma, melanomas, normal skin)
T3 construct: Tissue sections (5 μm) were cut from formalin fixed and paraffin embedded tissue samples; tissue IMPATH, Los Angeles, Calif; host or cells: normal and tumor human tissue microarrays (melanoma, lung and other carcinomas, skin)
T3 sequence (Q14956 23-572): T2 sequence (Q14956 23-572)
Description: Anti-GPNMB monoclonal antibodies were evaluated for reactivity with frozen and fixed tissue specimens. Tissue sections (5 μm) were cut from formalin fixed and paraffin embedded tissue samples and were rehydrated through incubations in xylene and a graded ethanol series terminating in PBS. Endogenous peroxidase activity was quenched in a 3% solution of hydrogen peroxide in methanol
Tissue sections were blocked in blocking buffer (5% BSA (Sigma), 1% goat serum (Jackson Immunolabs, West Grove, Pa.) in PBS) for 1 hour. Primary and secondary antibodies were precomplexed in 5% BSA and 1% goat serum in PBS for 1 hour at 37° C. at a molar ratio of approximately 10:1 of anti-GPNMB or control IgG to secondary biotinylated goat anti-human IgG (Jackson Immunolabs). Complexes were blocked with a 1:2000 dilution of human serum and incubated again for 1 hour at 37° C. Tissue sections were incubated with anti-GPNMB antibody or isotype control antibody complexes diluted in blocking buffer for 1 hour. Sections were washed in 3 changes of PBS for 5 to 10 minutes each and incubated with a 1:200 dilution of streptavidin conjugated horseradish peroxidase (Jackson Immunolabs) in blocking buffer for 30 minutes and then washed as before. Antibody was detected using DAB reagent (Vector labs). […]

[6] = TK10 Cells (GPNMB negative control)

B1: 1.2.2: human anti-GPNMB antibody; VH SEQ ID NO: 38, VL SEQ ID NO: 47 (antibody, listed as Homo sapiens, V domains shown)
VH: ITLKESGPTLVKPTQTLTLTCTFSGFSLSAGGVGVGWIRQPPGKALEWLALIYWNDDKRYSPSLRSRLTITKDTSKNQVVLTITNMDPVDTATYYCAHSHYDYDWGSYFDYWGQGTLVTVSSA
VL: DIVMTQTPLSLPVTPGEPASISCRSSQSLLDSDDGNTYLDWYLQKPGQSPQLLIYTLSYRASGVPDRFSGSGSGTDFTLNISRVEAEDVGVYYCMQRIEFPITFGQGTRLEIKR
Avg OD (GPNMB [1]; antibody at 12.3 ng/mL): 0.049
Avg OD (GPNMB [1]; antibody at 37 ng/mL): 0.094
Avg OD (GPNMB [1]; antibody at 111 ng/mL): 0.199
Avg OD (GPNMB [1]; antibody at 333 ng/mL): 0.356
Avg OD (GPNMB [1]; antibody at 1 μg/mL): 0.499
Avg OD (GPNMB [1]; antibody at 3 μg/mL): 0.763
ka (GPNMB [2]): 9257 M⁻¹ s⁻¹
kd (GPNMB [2]): 0.00089 s⁻¹
Geo Mean Ratio of anti-GPNMB Staining (relative to pK16) [3, 6]: L. 0.98
Geo Mean Ratio of anti-GPNMB Staining (relative to pK16) ([3]; UACC-62 Cells): K. 1.24

B3: 1.7.1: human anti-GPNMB antibody; VH SEQ ID NO: 56, VL SEQ ID NO: 65 (antibody, listed as Homo sapiens, V domains shown)
VH: QVQLQESGPGLVKPSQTLSLTCTVSGGSISSANYYWTWIRQHPGKGLEWIGYIYYSGSTYCNPSLKSRVIISVDTSKNQFSLKLSSVTAADTAVYYCARGYNWNYFDYWGQGTLVTVSSA
VL: DIVMTQSPATLSVSPGERATLSCRASQSVSSNLAWYQERPGQAPRLLIYGASTRATGIPARFSGSGSGTEFTLTISSLQSEDFAVYYCQQYNKWPPWTFGQGTKVEIER
ka (GPNMB [2]): 11842 M⁻¹ s⁻¹
kd (GPNMB [2]): 0.00144 s⁻¹

Next, values leading:

ka (GPNMB [2]): 3955 M⁻¹ s⁻¹
kd (GPNMB [2]): 0.000466 s⁻¹
B2: 1.10.2: human anti-GPNMB antibody; VH SEQ ID NO: 2, VL SEQ ID NO: 11 (antibody, listed as Homo sapiens, V domains shown)
VH: QVQLQESGPGLVKPSETLSLTCTVSGDSISNYYWSWIRQPPGKGLEWIGYFYYSGSTNYNPSLKSRVTISVDTSKNQFSLKLSSVTAADTAVYYCARDRGWADYWGQGTLVTVSSA
VL: EIVLTQSPGTLSLSPGERATLSCRTSQSISSSYLAWYQQKPGQVPRLLIYGASSRATGIPDRFSGSGSGTDFTLTISRLEPEDFAVYYCQQYGSSITFGQGTRLEIKR

bin (GPNMB [4]): Bin 1
IHC staining (GPNMB [5]): Positive staining
Geo Mean Ratio of anti-GPNMB Staining (relative to pK16) [3, 6]: I. 1.10
Geo Mean Ratio of anti-GPNMB Staining (relative to pK16) ([3]; UACC-62 Cells): H. 4.46
B4: 2.22.1: human anti-GPNMB antibody; VH SEQ ID NO: 164, VL SEQ ID NO: 173 (antibody, listed as Homo sapiens, V domains shown)
VH: QVQLEQSGPGLVKPSQNLSLTCTVSGGSISSGGYFWSWIRQHPGKGLEWIGYIYYSGNTYYNPSLKSRVTISVDTSKNQFSLKLSSVTAADTAVYYCARDYYYDTSGFSYRYDWYYGMDVWGQGTTVTVSSA
VL: DIQLTQSPSSLSASVGDRVTITCRASQGIRNDLGWYQQKPGKAPKRLIYAASSLQNGVPSRFSGSGSGTEFTLTISSLQPEDFATYYCLQHNTYPAFGQGTKVEIKR
